Results: US20250207119A1

Key:
[1] = molecular target: ADAM17 from R & D Systems (UniProt P78536); test: cell-based or functional assay
[2] = molecular target: Human ADAM10 from R & D Systems (human) (UniProt O14672); test: cell-based or functional assay
Human ADAM10 from R & D Systems (human), sequence (O14672 214-672 limits assumed): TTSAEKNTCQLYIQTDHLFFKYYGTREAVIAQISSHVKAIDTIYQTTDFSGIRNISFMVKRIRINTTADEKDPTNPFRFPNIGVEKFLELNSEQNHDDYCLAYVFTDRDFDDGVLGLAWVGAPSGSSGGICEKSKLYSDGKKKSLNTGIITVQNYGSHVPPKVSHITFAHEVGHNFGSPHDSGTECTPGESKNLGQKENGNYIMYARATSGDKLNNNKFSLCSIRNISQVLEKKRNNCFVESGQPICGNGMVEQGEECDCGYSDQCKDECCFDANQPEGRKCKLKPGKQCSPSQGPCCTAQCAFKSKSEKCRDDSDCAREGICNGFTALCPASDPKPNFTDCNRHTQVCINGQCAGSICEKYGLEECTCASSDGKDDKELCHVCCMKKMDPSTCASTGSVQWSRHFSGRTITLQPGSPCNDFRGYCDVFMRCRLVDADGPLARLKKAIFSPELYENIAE

ADAM17 from R & D Systems, sequence (P78536 215-671 limits assumed): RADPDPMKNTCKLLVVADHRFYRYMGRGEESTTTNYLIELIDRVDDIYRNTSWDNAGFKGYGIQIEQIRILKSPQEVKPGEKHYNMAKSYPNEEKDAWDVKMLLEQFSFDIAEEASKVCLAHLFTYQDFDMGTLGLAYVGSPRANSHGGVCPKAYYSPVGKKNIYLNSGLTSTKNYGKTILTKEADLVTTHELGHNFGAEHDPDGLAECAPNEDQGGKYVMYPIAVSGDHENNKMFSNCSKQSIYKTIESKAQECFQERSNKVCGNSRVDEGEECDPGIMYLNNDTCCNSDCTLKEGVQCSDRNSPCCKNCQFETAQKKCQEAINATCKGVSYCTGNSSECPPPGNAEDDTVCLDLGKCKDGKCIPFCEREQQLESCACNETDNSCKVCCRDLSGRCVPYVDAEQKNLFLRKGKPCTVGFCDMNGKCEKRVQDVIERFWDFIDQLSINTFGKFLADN

B1: Cys151-pegylated SEQ ID NO: 1 (peptide, not shown: small tags and cut ends)
chain: NPLNKYIRHYEGLSYNVDSLHQKHQRAKRAVSHEDQFLRLDFHAHGRHFNLRMKRDTSLFSDEFKVETSNKVLDYDTSHIYTGHIYGEEGSFSHGSVIDGRFEGFIQTRGGTFYVEPAERYIKDRTLPFHSVIYHEDDINYPHKYGPQGGCADHSVFERMRKYQMTGVEEVTQIPQEEHAANGPELLRK
modifications: 10 kDa maleimide PEG on Cys151
percent inhibition of ADAM17 activity [1]: 33 % at 6.7 µM
IC50 (nM), inhibition of ADAM10 cleavage of the fluorescent substrate PEPDAB064 [2]: 49 nM
